Values joined by “and” are separate entries in the source; they are usually repeats but may differ in a detail not shown here. Equal entries are not always repeated. Where two headings read alike, the source gives them in different places. One block for each binder: values may come before it.
Key:
[1] = biological target: the molecule itself
[2] = biological target: T1, Spindly^250-605 (human, UniProt Q96EA4 250-605); experiment: SEC
T1 sequence: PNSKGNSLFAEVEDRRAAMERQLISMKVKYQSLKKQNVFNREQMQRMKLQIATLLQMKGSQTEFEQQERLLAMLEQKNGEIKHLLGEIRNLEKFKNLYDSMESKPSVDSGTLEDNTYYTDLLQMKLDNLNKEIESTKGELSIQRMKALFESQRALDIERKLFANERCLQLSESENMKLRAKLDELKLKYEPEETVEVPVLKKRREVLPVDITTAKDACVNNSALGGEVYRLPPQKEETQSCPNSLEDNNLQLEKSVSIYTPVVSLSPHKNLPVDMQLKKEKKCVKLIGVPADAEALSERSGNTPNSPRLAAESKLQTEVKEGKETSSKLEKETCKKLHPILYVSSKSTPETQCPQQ

[3] = biological target: the molecule itself; experiment: mass photometry
[4] = biological target: the molecule itself; experiment: crystal structure
[5] = biological target: T2, mCherry-tagged full-length Spindly (^mChSpindly^FL) (human), Q96EA4; experiment: mass photometry; conditions: remark: other sources report otherwise
T2 chain: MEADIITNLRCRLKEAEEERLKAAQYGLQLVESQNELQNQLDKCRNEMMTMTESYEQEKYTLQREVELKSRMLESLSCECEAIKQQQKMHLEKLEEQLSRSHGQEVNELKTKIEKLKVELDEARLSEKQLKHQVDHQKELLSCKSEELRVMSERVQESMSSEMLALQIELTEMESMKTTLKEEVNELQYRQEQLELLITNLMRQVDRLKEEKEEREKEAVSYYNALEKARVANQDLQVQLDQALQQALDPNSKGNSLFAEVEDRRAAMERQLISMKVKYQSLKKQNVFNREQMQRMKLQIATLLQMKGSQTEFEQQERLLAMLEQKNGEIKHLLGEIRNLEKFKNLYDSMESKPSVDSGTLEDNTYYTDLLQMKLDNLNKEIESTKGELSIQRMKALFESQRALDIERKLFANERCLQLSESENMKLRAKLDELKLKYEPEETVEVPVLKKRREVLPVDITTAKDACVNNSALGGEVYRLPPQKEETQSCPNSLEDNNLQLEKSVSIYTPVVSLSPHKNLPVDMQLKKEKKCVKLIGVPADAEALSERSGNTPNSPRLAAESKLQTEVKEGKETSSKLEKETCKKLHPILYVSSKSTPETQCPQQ

B1: ^mChSpindly^Δ276-306 (natural protein)
chain: MEADIITNLRCRLKEAEEERLKAAQYGLQLVESQNELQNQLDKCRNEMMTMTESYEQEKYTLQREVELKSRMLESLSCECEAIKQQQKMHLEKLEEQLSRSHGQEVNELKTKIEKLKVELDEARLSEKQLKHQVDHQKELLSCKSEELRVMSERVQESMSSEMLALQIELTEMESMKTTLKEEVNELQYRQEQLELLITNLMRQVDRLKEEKEEREKEAVSYYNALEKARVANQDLQVQLDQALQQALDPNSKGNSLFAEVEDRRAAMERQLISMKGSQTEFEQQERLLAMLEQKNGEIKHLLGEIRNLEKFKNLYDSMESKPSVDSGTLEDNTYYTDLLQMKLDNLNKEIESTKGELSIQRMKALFESQRALDIERKLFANERCLQLSESENMKLRAKLDELKLKYEPEETVEVPVLKKRREVLPVDITTAKDACVNNSALGGEVYRLPPQKEETQSCPNSLEDNNLQLEKSVSIYTPVVSLSPHKNLPVDMQLKKEKKCVKLIGVPADAEALSERSGNTPNSPRLAAESKLQTEVKEGKETSSKLEKETCKKLHPILYVSSKSTPETQCPQQ
stoichiometry N [1]: 2 and 4

binding result [2]: binds
B2: Spindly^1-250 (domain or fragment)
chain: MEADIITNLRCRLKEAEEERLKAAQYGLQLVESQNELQNQLDKCRNEMMTMTESYEQEKYTLQREVELKSRMLESLSCECEAIKQQQKMHLEKLEEQLSRSHGQEVNELKTKIEKLKVELDEARLSEKQLKHQVDHQKELLSCKSEELRVMSERVQESMSSEMLALQIELTEMESMKTTLKEEVNELQYRQEQLELLITNLMRQVDRLKEEKEEREKEAVSYYNALEKARVANQDLQVQLDQALQQALDP

B3: ^mChSpindly^ΔRV (natural protein)
chain: MEADIITNLRCRLKEAEEERLKAAQYGLQLVESQNELQNQLDKCRNEMMTMTESYEQEKYTLQREVELKSRMLESLSCECEAIKQQQKMHLEKLEEQLSRSHGQEVNELKTKIEKLKVELDEARLSEKQLKHQVDHQKELLSCKSEELRVMSEQESMSSEMLALQIELTEMESMKTTLKEEVNELQYRQEQLELLITNLMRQVDRLKEEKEEREKEAVSYYNALEKARVANQDLQVQLDQALQQALDPNSKGNSLFAEVEDRRAAMERQLISMKVKYQSLKKQNVFNREQMQRMKLQIATLLQMKGSQTEFEQQERLLAMLEQKNGEIKHLLGEIRNLEKFKNLYDSMESKPSVDSGTLEDNTYYTDLLQMKLDNLNKEIESTKGELSIQRMKALFESQRALDIERKLFANERCLQLSESENMKLRAKLDELKLKYEPEETVEVPVLKKRREVLPVDITTAKDACVNNSALGGEVYRLPPQKEETQSCPNSLEDNNLQLEKSVSIYTPVVSLSPHKNLPVDMQLKKEKKCVKLIGVPADAEALSERSGNTPNSPRLAAESKLQTEVKEGKETSSKLEKETCKKLHPILYVSSKSTPETQCPQQ
stoichiometry N [3]: 2

B4: Spindly^1-100 (domain or fragment)
chain: MEADIITNLRCRLKEAEEERLKAAQYGLQLVESQNELQNQLDKCRNEMMTMTESYEQEKYTLQREVELKSRMLESLSCECEAIKQQQKMHLEKLEEQLSR
stoichiometry N [4]: 2

B5: Spindly^1-275 (domain or fragment)
chain: MEADIITNLRCRLKEAEEERLKAAQYGLQLVESQNELQNQLDKCRNEMMTMTESYEQEKYTLQREVELKSRMLESLSCECEAIKQQQKMHLEKLEEQLSRSHGQEVNELKTKIEKLKVELDEARLSEKQLKHQVDHQKELLSCKSEELRVMSERVQESMSSEMLALQIELTEMESMKTTLKEEVNELQYRQEQLELLITNLMRQVDRLKEEKEEREKEAVSYYNALEKARVANQDLQVQLDQALQQALDPNSKGNSLFAEVEDRRAAMERQLISM
stoichiometry N [1]: 2 and 4

B6: ^mChSpindly^76-605 (domain or fragment)
chain: LSCECEAIKQQQKMHLEKLEEQLSRSHGQEVNELKTKIEKLKVELDEARLSEKQLKHQVDHQKELLSCKSEELRVMSERVQESMSSEMLALQIELTEMESMKTTLKEEVNELQYRQEQLELLITNLMRQVDRLKEEKEEREKEAVSYYNALEKARVANQDLQVQLDQALQQALDPNSKGNSLFAEVEDRRAAMERQLISMKVKYQSLKKQNVFNREQMQRMKLQIATLLQMKGSQTEFEQQERLLAMLEQKNGEIKHLLGEIRNLEKFKNLYDSMESKPSVDSGTLEDNTYYTDLLQMKLDNLNKEIESTKGELSIQRMKALFESQRALDIERKLFANERCLQLSESENMKLRAKLDELKLKYEPEETVEVPVLKKRREVLPVDITTAKDACVNNSALGGEVYRLPPQKEETQSCPNSLEDNNLQLEKSVSIYTPVVSLSPHKNLPVDMQLKKEKKCVKLIGVPADAEALSERSGNTPNSPRLAAESKLQTEVKEGKETSSKLEKETCKKLHPILYVSSKSTPETQCPQQ
stoichiometry N [3]: 2

stoichiometry N [5]: 2
B7: mCherry-tagged full-length Spindly (^mChSpindly^FL), Q96EA4 1-605 (natural protein)
chain: MEADIITNLRCRLKEAEEERLKAAQYGLQLVESQNELQNQLDKCRNEMMTMTESYEQEKYTLQREVELKSRMLESLSCECEAIKQQQKMHLEKLEEQLSRSHGQEVNELKTKIEKLKVELDEARLSEKQLKHQVDHQKELLSCKSEELRVMSERVQESMSSEMLALQIELTEMESMKTTLKEEVNELQYRQEQLELLITNLMRQVDRLKEEKEEREKEAVSYYNALEKARVANQDLQVQLDQALQQALDPNSKGNSLFAEVEDRRAAMERQLISMKVKYQSLKKQNVFNREQMQRMKLQIATLLQMKGSQTEFEQQERLLAMLEQKNGEIKHLLGEIRNLEKFKNLYDSMESKPSVDSGTLEDNTYYTDLLQMKLDNLNKEIESTKGELSIQRMKALFESQRALDIERKLFANERCLQLSESENMKLRAKLDELKLKYEPEETVEVPVLKKRREVLPVDITTAKDACVNNSALGGEVYRLPPQKEETQSCPNSLEDNNLQLEKSVSIYTPVVSLSPHKNLPVDMQLKKEKKCVKLIGVPADAEALSERSGNTPNSPRLAAESKLQTEVKEGKETSSKLEKETCKKLHPILYVSSKSTPETQCPQQ
